Data as given in US20250051400A1.

Tests used:
[1] = biological target: human IgG2 (Panitumomab); experiment: SPR, Biacore 3000, 25 C, Langmuir 1:1 model
[2] = biological target: human IgG4 (Natalizumab); experiment: SPR, Biacore 3000, 25 C, Langmuir 1:1 model

“Wt C-domain (wild-type Protein A domain C) (from UniProt P38507 270-327)” showed a Kd [1] of 0.129 µM and a Kd [2] of 0.008 µM.
